Data from patent publication US20110086806A1 (published 2011).
Changes are numbered by the printed parent chain. Names may count otherwise.

T1: recombinant human IL-23R/Fc chimera (R&D Systems) (human, UniProt Q5VWK5 24-355)
T1 construct: Bought; also called rhIL23RFc
T1 sequence (looked up): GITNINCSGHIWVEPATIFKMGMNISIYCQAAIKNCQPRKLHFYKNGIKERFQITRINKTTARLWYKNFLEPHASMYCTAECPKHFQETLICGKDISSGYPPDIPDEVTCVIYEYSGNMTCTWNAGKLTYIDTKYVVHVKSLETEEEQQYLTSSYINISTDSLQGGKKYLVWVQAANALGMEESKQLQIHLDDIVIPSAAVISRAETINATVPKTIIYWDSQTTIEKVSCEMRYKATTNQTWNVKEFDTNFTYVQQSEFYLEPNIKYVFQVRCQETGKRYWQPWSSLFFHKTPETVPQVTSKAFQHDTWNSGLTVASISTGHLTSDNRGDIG

T2: recombinant human IL-12Rβ2/Fc fusion protein (R&D Systems) (human, UniProt Q99665 24-622, limits assumed)
T2 construct: Bought; also called Il12Rb2
T2 sequence: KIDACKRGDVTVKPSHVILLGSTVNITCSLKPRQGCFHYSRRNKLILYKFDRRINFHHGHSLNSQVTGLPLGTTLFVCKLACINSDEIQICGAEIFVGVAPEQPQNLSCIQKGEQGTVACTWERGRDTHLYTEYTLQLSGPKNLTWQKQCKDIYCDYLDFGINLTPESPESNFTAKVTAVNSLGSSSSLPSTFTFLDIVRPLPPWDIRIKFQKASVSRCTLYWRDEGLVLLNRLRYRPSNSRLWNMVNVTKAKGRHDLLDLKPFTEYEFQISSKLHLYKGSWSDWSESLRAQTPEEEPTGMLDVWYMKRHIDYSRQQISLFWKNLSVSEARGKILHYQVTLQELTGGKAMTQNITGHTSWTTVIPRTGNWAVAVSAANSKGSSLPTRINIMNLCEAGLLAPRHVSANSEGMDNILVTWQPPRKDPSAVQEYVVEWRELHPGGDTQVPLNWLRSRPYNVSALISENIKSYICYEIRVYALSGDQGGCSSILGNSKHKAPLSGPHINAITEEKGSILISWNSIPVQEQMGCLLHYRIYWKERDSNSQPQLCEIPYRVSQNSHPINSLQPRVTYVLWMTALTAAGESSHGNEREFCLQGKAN

B1: 056-41.B5C ATRIMER complex (designed binder)
chain: EPPTQKPKKIVNAKKDVVNTKMFEELKSRLDTLAQEVALLKEQQALQTVCLKGTKVHMKCFLAFTQTKTFHEASEDCISRGGTLSTPQTGSENDALYEYLRQSVGNEAEIWLGLNGSALTNTWVDMTGARIAYKNWETEITAQPDGGFGYFGENCAVLSGAANGKWFDKRCRDQLPYICQFGIV
modifications: non-covalent homotrimer of the one chain given
notes: not shown: Also the single Ser the vector leaves after the ompA signal
B2: 105-20-1B3 ATRIMER complex (designed binder)
chain: B1 chain
B3: 101-113-6C108 ATRIMER complex (designed binder)
chain: B1 chain with T138P, E139P, I140P, T141P, A142H, Q143H, D145M, Y150V
modifications: Forms a homotrimer through the tetranectin coiled coil; one protomer is given.
notes: not shown: C-terminal tag: His/Myc (pANA4) or HA-StrepII (pANA10)
B4: 101-51-1A4 ATRIMER complex (designed binder)
chain: B1 chain with T138R, E139P, I140A, T141L, A142V, D145R, Y150V
modifications: Forms a homotrimer through the tetranectin coiled coil; one protomer is given.
notes: as for B3
B5: 056-53.H7B ATRIMER complex (designed binder)
chain: B1 chain with G116A, S117G, A118R, L119M, T120G, N121L, T122V, F148W, Y150V
modifications: non-covalent homotrimer of the one chain given
notes: as for B1
B6: 001-87.A9E ATRIMER complex (designed binder)
chain: B1 chain with F148L, F151W
modifications: Homotrimer of this chain (ATRIMER complex).
notes: not shown: A possible extra N-terminal Ser from the ompA junction is left out
B7: 056-53.H1G ATRIMER complex (designed binder)
chain: B1 chain with G116S, S117G, A118H, L119W, T120R, N121A, T122V, Y150V
modifications: Homotrimer of this chain (ATRIMER complex).
notes: as for B6
B8: 001-69.4G8 ATRIMER complex (designed binder)
chain: B1 chain with A118R, L119R, T120S, N121G, T122V, Y150V
notes: as for B3
B9: 056-40.A3C ATRIMER complex (designed binder)
chain: B1 chain with L119T, N121A
modifications: Homotrimer of this chain (ATRIMER complex).
notes: as for B6
B10: 056-53.H7H ATRIMER complex (designed binder)
chain: B1 chain with A118S, L119V, T120S, N121D, T122V
modifications: Homotrimer of this chain (ATRIMER complex).
notes: as for B6
B11: 056-45.F7F ATRIMER complex (designed binder)
chain: B1 chain with L119T, N121D
modifications: Homotrimer of this chain (ATRIMER complex).
notes: as for B6
B12: 101-54-4B6 ATRIMER complex (designed binder)
chain: B1 chain with T138P, E139P, I140G, T141P, A142H, Q143H, D145M, Y150V
B13: 105-08-1A8 ATRIMER complex (designed binder)
chain: B1 chain with A118P, L119R, Y150V
B14: 101-51-1A7 ATRIMER complex (designed binder)
chain: B1 chain with T138R, E139P, I140P, T141L, A142Y, D145G, F148W, Y150V
modifications: Forms a homotrimer through the tetranectin coiled coil; one protomer is given.
notes: as for B3
B15: H4E E137A ATRIMER complex (designed binder)
chain: B1 chain with E137A, Y150V

molecular target: T1, recombinant human IL-23R/Fc chimera …; assay: SPR
Description: A Biacore 3000 biosensor (GE Healthcare) was used to evaluate the interaction of human IL-23R and receptor binders. Immobilization of an anti-human IgG Fc antibody (GE Healthcare) to the CM5 chip (GE Healthcare) was performed using standard amine coupling chemistry, and this modified surface was used to capture a recombinant human IL-23R/Fc fusion protein (R&D Systems). A low-density receptor surface, less than 200 RU, was used for all of the analyses. ATRIMER™ polypeptide complex dilutions (1-500 nM) were injected over the IL-23R surface at 30 μl/min and kinetic constants were derived from the sensorgram data using the Biaevaluation software (version 3.1, GE Healthcare). Data collection was 3 minutes for the association and 5 minutes for dissociation. The anti-human IgG surface was regenerated with a 30s pulse of 3M magnesium chloride. All sensorgrams were double-referenced against an activated and blocked flow-cell as well as buffer injections.

Ka [M⁻¹]	Kd [nM]	koff [s⁻¹]	kon [M⁻¹ s⁻¹]	Binder
9.78e+08	1.02	0.000314	307000	B1
1.31e+09	0.764	0.00031	405000	B2
1.63e+09	0.613	0.000382	623000	B3
2.58e+09	0.388	0.000395	1.02e+06	B4
1.8e+09	0.557	0.00024	431000	B5
5.21e+08	1.92	0.00033	172000	B6
1.95e+08	5.13	0.000489	95200	B7
1.35e+08	7.42	0.000805	109000	B8
5.7e+08	1.75	0.000373	213000	B9
6.65e+08	1.5	0.000385	256000	B10
7.92e+08	1.26	0.000376	298000	B11
1.76e+09	0.569	0.00039	687000	B12
2.14e+09	0.467	0.000344	737000	B13
2.24e+09	0.447	0.000187	419000	B14

molecular target: T1, recombinant human IL-23R/Fc chimera …; assay: competition ELISA vs IL-23

Ratio IC50 to 056-53.H4E IC50	Binder
1.2	B2
0.9	B3
1	B4
0.3	B12
1.6	B13
1	B14

molecular target: T1, recombinant human IL-23R/Fc chimera …; assay: competition ELISA vs IL-23; remark: another data set of the same source
Description: Assays were performed generally as follows. Individual wells in Immulon HB2 plates were incubated overnight at 4° C. with 100 μL PBS containing 100 ng of an anti-human IgG Fc (R&D MAB 110 clone 97924). Plates were washed five times with PBS/0.05% Tween 20, and wells were incubated for 1.5 h at RT with 100 μL each of PBS containing 50 ng of recombinant human IL-23R/Fc. […] Competitor was included at a final concentration of 1 μg/mL. After incubation, plates were washed as described and wells were incubated for 40 min at RT with 100 μL each of PBS containing a 1:5000 dilution of streptavidin-HRP conjugate (Pierce catalog no. 21130). After washing, wells were incubated with 100 μL each of TMB (BioFX Lab catalog no. TMBH-1000-0) for up to 30 min at RT. Reactions were stopped with an equal volume of 0.2 M sulfuric acid.
A number of ATRIMER™ polypeptide complexes were tested in competition ELISA more extensively to determine IC50 values.

IC50 [nM]	Binder
1.65	B1
0.9	B5
2.6	B6
3.75	B7
1.4	B8
1.8	B9
0.53	B10
1.45	B11

molecular target: T2, recombinant human IL-12Rβ2/Fc fusion …; assay: SPR
Description: (§1) A Biacore 3000 biosensor (GE Healthcare) was used to evaluate the interaction of human IL-12Rβ1/Fc or IL-12Rβ2/Fc with IL-23R binding ATRIMER™ complexes. Immobilization of an anti-human IgG Fc antibody (GE Healthcare) to the CM5 chip (GE Healthcare) was performed using standard amine coupling chemistry, and this modified surface was used to capture recombinant human IL-12Rβ1/Fc or IL-12Rβ2/Fc fusion protein (R&D Systems). A low-density receptor surface, less than 200 RU, was used for all of the analyses. ATRIMER™ complex dilutions (100 nM) were injected over the IL-12R surface at 30 μl/min. Data collection was 3 minutes for the association and 5 minutes for dissociation. The anti-human IgG surface was regenerated with a 30s pulse of 3M magnesium chloride. All sensorgrams were double-referenced against an anti-human IgG Fc antibody surface as well as buffer injections.

binding result	Binder
no binding (tested: 100 nM)	B3
no binding (tested: 100 nM)	B4
no binding (tested: 100 nM)	B15
no binding (tested: 100 nM)	B12
no binding (tested: 100 nM)	B13
no binding (tested: 100 nM)	B14

molecular target: T3, recombinant human IL-12Rβ1/Fc fusion protein (R&D Systems) (human, UniProt P42701 24-540, limits assumed); assay: SPR
T3 construct: Bought; also called Il12Rb1
Description: as §1

binding result	Binder
no binding (tested: 100 nM)	B3
no binding (tested: 100 nM)	B4
no binding (tested: 100 nM)	B15
no binding (tested: 100 nM)	B12
no binding (tested: 100 nM)	B13
no binding (tested: 100 nM)	B14
